Reference: publication PMC6160236, “Disrupted structure and aberrant function of CHIP mediates the loss of motor and cognitive function in preclinical models of SCAR16” (PLoS Genetics, 2018)
Numbering of substitutions follows the chain as printed. Names and notes keep the numbering of the source.

How the values were obtained:
[1] = target: T1, CHIP (carboxyl terminus of heat shock 70-interacting protein), recombinant His-tagged wild type (human), Q9UNE7; experiment: SEC-MALS; GE Superdex 200 column with Wyatt DAWN HELEOS-II and T-Rex refractometer; 100 μl of 0.5 mg/ml of each sample loaded; oligomeric species of each CHIP protein; details: remark: other sources report otherwise
T1 chain: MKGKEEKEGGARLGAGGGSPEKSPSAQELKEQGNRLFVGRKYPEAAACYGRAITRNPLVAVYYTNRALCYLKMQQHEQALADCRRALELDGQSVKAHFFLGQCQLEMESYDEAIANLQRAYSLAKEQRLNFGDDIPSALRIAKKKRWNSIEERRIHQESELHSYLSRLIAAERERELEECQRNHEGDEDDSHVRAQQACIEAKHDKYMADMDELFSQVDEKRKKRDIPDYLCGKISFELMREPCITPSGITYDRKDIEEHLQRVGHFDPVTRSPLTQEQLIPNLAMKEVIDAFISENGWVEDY

[2] = target: T2, CHIP-K30A, recombinant His-tagged (human), Q9UNE7; experiment: as above; details: remark: other sources report otherwise
T2 chain: T1 chain with K30A

[3] = target: T3, myc-CHIP wild type (pcDNA3-mycCHIP) (human), Q9UNE7; experiment: native gel or EMSA; blue native PAGE (4-16% NativePAGE) of fresh lysates of transfected COS-7 cells, immunoblot with anti-myc; details: remark: other sources report otherwise
T3 chain: T1 chain

[4] = target: T4, myc-CHIP-K30A (pcDNA3-mycCHIP-K30A) (human), Q9UNE7; experiment: as above; details: remark: other sources report otherwise
T4 chain: T1 chain with K30A

[5] = target: the molecule itself; experiment: SEC-MALS; GE Superdex 200 column with Wyatt DAWN HELEOS-II and T-Rex refractometer; 100 μl of 0.5 mg/ml of each sample loaded; oligomeric species of each CHIP protein

B1: CHIP (carboxyl terminus of heat shock 70-interacting protein), recombinant His-tagged wild type, Q9UNE7 1-303 (enzyme)
chain: T1 chain
percent of the protein as 2mer [1]: 69.7%
percent of the protein as 4mer [1]: 25.2%
percent of the protein as 6mer [1]: 4.8%
stoichiometry N [1]: 2

B2: CHIP-K30A, recombinant His-tagged, Q9UNE7 1-303 (enzyme)
chain: T1 chain with K30A
percent of the protein as 2mer [2]: 80.4%
percent of the protein as 4mer [2]: 16.4%
percent of the protein as 6mer [2]: 2.6%
stoichiometry N [2]: 2

B3: myc-CHIP wild type (pcDNA3-mycCHIP), Q9UNE7 1-303 (enzyme)
chain: T1 chain
stoichiometry N [3]: 2

B4: myc-CHIP-K30A (pcDNA3-mycCHIP-K30A), Q9UNE7 1-303 (enzyme)
chain: T1 chain with K30A
stoichiometry N [4]: 2

B5: CHIP-T246M, recombinant His-tagged (enzyme, human, UniProt Q9UNE7 1-303, looked up)
chain: T1 chain with T246M
notes: CHIP (gene STUB1), full-length protein with the SCAR16 patient mutation p.T246M in the U-box; T246M is a mutation found in SCAR16 patients; source: Escherichia coli BL21(DE3), purified (HisTrap HP)
stoichiometry N [5]: 10 to 12
